The data set deals with Escherichia coli TOP10. The experiment in a line: shrunken log2 fold change of peptide-encoding DNA abundance (4.5 h post-induction vs induction); higher = less antimicrobial activity (less host growth inhibition). As to conditions: time post-induction: 4.5 h; library: site-saturation at positions 5, 18, 19, 20.
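Also: peptides expressed intracellularly from a pBAD plasmid library in pooled LB shake-flask culture, induced with 0.3% L-arabinose, DNA abundance read by NGS, three biological replicates, DESeq2 with apeglm shrinkage.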

For the sequence RRIRARPPRLPRPRPRPKYFPRP, the “shrunken log2 fold change” value came to 0.0918. Regarding RRIRGRPPRLPRPRPRPFTWPRP, the “shrunken log2 fold change” value turned out to be 0.725. As for RRIRTRPPRLPRPRPRPPSKPRP, the figure is -0.326. For RRIRCRPPRLPRPRPRPFDDPRP the value was 0.0116; for RRIRYRPPRLPRPRPRPKNWPRP, -0.3; for RRIRGRPPRLPRPRPRPIAYPRP, 0.117. For RRIRYRPPRLPRPRPRPTWQPRP the value was -0.255; for RRIRYRPPRLPRPRPRPGMWPRP, 0.234. In the case of RRIRKRPPRLPRPRPRPYGAPRP, the “shrunken log2 fold change” value stood at 0.00792. For RRIRCRPPRLPRPRPRPCVKPRP the value was -0.439; for RRIRQRPPRLPRPRPRPYWIPRP, -0.152; for RRIRGRPPRLPRPRPRPWFIPRP, -0.361. For RRIRNRPPRLPRPRPRPRSSPRP the value was -0.145. Take RRIRLRPPRLPRPRPRPVYNPRP: the “shrunken log2 fold change” value stood at 0.41.

For RRIRPRPPRLPRPRPRPEGGPRP, the “shrunken log2 fold change” value was 0.329. For RRIRWRPPRLPRPRPRPRDYPRP the value was -0.127; for RRIRSRPPRLPRPRPRPNWEPRP, 0.015; for RRIRLRPPRLPRPRPRPIYWPRP, -0.0187.

As to RRIRPRPPRLPRPRPRPPPKPRP, the “shrunken log2 fold change” value was found to be 0.902. On to RRIRTRPPRLPRPRPRPIDGPRP, for which the “shrunken log2 fold change” value is 0.0685.

Turning to RRIRIRPPRLPRPRPRPTWYPRP, the “shrunken log2 fold change” value was -0.668. For the sequence RRIRVRPPRLPRPRPRPRDLPRP, the “shrunken log2 fold change” value is 0.0448.

RRIRMRPPRLPRPRPRPEAAPRP: the “shrunken log2 fold change” value came to 3.45.

In the case of RRIRHRPPRLPRPRPRPMDSPRP, the “shrunken log2 fold change” value was -0.00141. For RRIRVRPPRLPRPRPRPHVPPRP the value was -0.044. For RRIRIRPPRLPRPRPRPRQCPRP the value was -0.127; for RRIRTRPPRLPRPRPRPMYQPRP, -0.416. As for RRIRKRPPRLPRPRPRPISYPRP, the figure is -0.0078. For RRIRERPPRLPRPRPRPIEPPRP, the “shrunken log2 fold change” value was -0.26. For RRIRERPPRLPRPRPRPSRHPRP, the “shrunken log2 fold change” value was -0.439. As for RRIRCRPPRLPRPRPRPMRGPRP, the figure is 1.05; as for RRIRHRPPRLPRPRPRPGEIPRP, 0.761; as for RRIRNRPPRLPRPRPRPVHTPRP, 0.0171. For RRIRSRPPRLPRPRPRPGACPRP the value was 0.0577. For RRIRKRPPRLPRPRPRPNHVPRP the value was 0.0656.

Regarding RRIRVRPPRLPRPRPRPMFMPRP, the “shrunken log2 fold change” value is -0.562. For RRIRHRPPRLPRPRPRPMDNPRP the value was -0.262. On to RRIRFRPPRLPRPRPRPHGLPRP, for which the “shrunken log2 fold change” value is 0.0196. Take RRIRNRPPRLPRPRPRPNWSPRP: the “shrunken log2 fold change” value was -0.106. For RRIRTRPPRLPRPRPRPCANPRP the value was -0.148. On to RRIRQRPPRLPRPRPRPIKDPRP, for which the “shrunken log2 fold change” value is -0.034. As for RRIRWRPPRLPRPRPRPREQPRP, the figure is 0.349; as for RRIRPRPPRLPRPRPRPQSAPRP, 1.69; as for RRIRRRPPRLPRPRPRPGMWPRP, 0.59. As for RRIRHRPPRLPRPRPRPDSGPRP, the “shrunken log2 fold change” value was -0.0385. As for RRIRERPPRLPRPRPRPLLYPRP, the figure is -0.309; as for RRIRPRPPRLPRPRPRPAHVPRP, 0.0491. For RRIRHRPPRLPRPRPRPNENPRP the value was -0.579; for RRIRRRPPRLPRPRPRPGKGPRP, 0.609. For RRIRDRPPRLPRPRPRPNPTPRP the value was 0.135. Consider RRIRDRPPRLPRPRPRPWDIPRP, for which the “shrunken log2 fold change” value was -0.0043. Take RRIRIRPPRLPRPRPRPPPQPRP: the “shrunken log2 fold change” value is 0.52. As for RRIRRRPPRLPRPRPRPEIHPRP, the figure is -0.265. Take RRIRLRPPRLPRPRPRPSTNPRP: the “shrunken log2 fold change” value was -0.451.

As to RRIRYRPPRLPRPRPRPSFKPRP, the “shrunken log2 fold change” value was -0.806. For RRIRTRPPRLPRPRPRPRRVPRP, the “shrunken log2 fold change” value came to 0.329. For RRIRDRPPRLPRPRPRPPKAPRP the value was -0.122; for RRIRCRPPRLPRPRPRPFRVPRP, -0.32. RRIRMRPPRLPRPRPRPLPPPRP: the “shrunken log2 fold change” value came out at 1.37. For RRIRVRPPRLPRPRPRPAQGPRP the value was 0.00544; for RRIRRRPPRLPRPRPRPKCAPRP, 0.884. For RRIRERPPRLPRPRPRPPHFPRP the value was 0.568; for RRIRHRPPRLPRPRPRPSSPPRP, -0.316.

As to RRIRKRPPRLPRPRPRPKVPPRP, the “shrunken log2 fold change” value was determined as 0.225. As for RRIRKRPPRLPRPRPRPDEFPRP, the “shrunken log2 fold change” value was 1.24.

RRIRTRPPRLPRPRPRPFPGPRP: the “shrunken log2 fold change” value was -0.21. As for RRIRWRPPRLPRPRPRPEAPPRP, the “shrunken log2 fold change” value was 1.01.

On to RRIRPRPPRLPRPRPRPPMKPRP, for which the “shrunken log2 fold change” value is 0.0802.

Consider RRIRWRPPRLPRPRPRPIIWPRP, for which the “shrunken log2 fold change” value is -0.269. Regarding RRIRYRPPRLPRPRPRPPHKPRP, the “shrunken log2 fold change” value was -0.549. For RRIRKRPPRLPRPRPRPFPYPRP the value was -0.135; for RRIRTRPPRLPRPRPRPMYGPRP, -0.000687. For RRIRKRPPRLPRPRPRPLARPRP the value was 0.213; for RRIRARPPRLPRPRPRPQGIPRP, 0.0477; for RRIRCRPPRLPRPRPRPRSVPRP, 0.318.

Regarding RRIRKRPPRLPRPRPRPWFPPRP, the “shrunken log2 fold change” value was -0.0488. As for RRIRTRPPRLPRPRPRPPHAPRP, the figure is 0.312. As for RRIRWRPPRLPRPRPRPRCGPRP, the figure is 0.672. As for RRIRKRPPRLPRPRPRPGFFPRP, the figure is 0.786; as for RRIRARPPRLPRPRPRPLAKPRP, 0.835. As for RRIRRRPPRLPRPRPRPKTPPRP, the “shrunken log2 fold change” value came to 0.782.

Consider RRIRIRPPRLPRPRPRPRTLPRP, for which the “shrunken log2 fold change” value is -0.259. As to RRIRFRPPRLPRPRPRPSKDPRP, the “shrunken log2 fold change” value is -0.347.

RRIRIRPPRLPRPRPRPNYEPRP: the “shrunken log2 fold change” value is -0.396. For RRIRARPPRLPRPRPRPIMVPRP, the “shrunken log2 fold change” value was -0.146.

For RRIRSRPPRLPRPRPRPKGTPRP, the “shrunken log2 fold change” value was -0.237. For RRIRMRPPRLPRPRPRPHKKPRP the value was 0.0772.

Regarding RRIRFRPPRLPRPRPRPWLWPRP, the “shrunken log2 fold change” value is -0.052. Take RRIRTRPPRLPRPRPRPAHPPRP: the “shrunken log2 fold change” value was 0.396. As to RRIRFRPPRLPRPRPRPVAIPRP, the “shrunken log2 fold change” value is -0.0527. As for RRIRHRPPRLPRPRPRPYQNPRP, the figure is 0.0439.
